Laboratory results taken from patent publication US5817785.

How the values were obtained:
[1] = biological target: T1, HIV-1 Rev protein (HIV-1) (UniProt P04618); test: filter; conditions: background affinity of starting pool
T1 sequence: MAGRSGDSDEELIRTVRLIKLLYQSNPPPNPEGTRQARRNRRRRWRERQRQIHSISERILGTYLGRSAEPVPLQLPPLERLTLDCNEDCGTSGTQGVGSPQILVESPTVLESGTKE

[2] = biological target: HIV-1 reverse transcriptase (HIV-RT) (HIV-1) (UniProt P04585+P04585); test: filter

Sequence	Kd [1]	binding signal (fold higher affinity than ligand B) [2]
CCCGGAUCCUCUUUACCUCUGUGUGAGAUACAGAGUCCACAAACGUGUUCUCAAUGCACCCGGUCGGAAGGCCAUCAAUAGUCCC	100 nM	–
GGUCCGAAGUGCAACGGGAAAAUGCACUNNNNGUGARNNNNUGNUCCNNNN [extended HIV-RT ligands, Extension Motif I consensus]	–	> 10
GGUCCGAAGUGCAACGGGAAAAUGCACUNNNNNNAGNNNNNNUGNUGNNNNNNN [extended HIV-RT ligands, Extension Motif II consensus]	–	> 10
